2 molecules from patent US20180193430, “COMPOSITIONS AND METHODS TO INHIBIT VIRAL REPLICATION” (published 2018) can be followed below.

One data set concerns the target T1, RIG-I-N495D (Homo sapiens, UniProt O95786 SEQ:1-925, N495D).
T1 sequence: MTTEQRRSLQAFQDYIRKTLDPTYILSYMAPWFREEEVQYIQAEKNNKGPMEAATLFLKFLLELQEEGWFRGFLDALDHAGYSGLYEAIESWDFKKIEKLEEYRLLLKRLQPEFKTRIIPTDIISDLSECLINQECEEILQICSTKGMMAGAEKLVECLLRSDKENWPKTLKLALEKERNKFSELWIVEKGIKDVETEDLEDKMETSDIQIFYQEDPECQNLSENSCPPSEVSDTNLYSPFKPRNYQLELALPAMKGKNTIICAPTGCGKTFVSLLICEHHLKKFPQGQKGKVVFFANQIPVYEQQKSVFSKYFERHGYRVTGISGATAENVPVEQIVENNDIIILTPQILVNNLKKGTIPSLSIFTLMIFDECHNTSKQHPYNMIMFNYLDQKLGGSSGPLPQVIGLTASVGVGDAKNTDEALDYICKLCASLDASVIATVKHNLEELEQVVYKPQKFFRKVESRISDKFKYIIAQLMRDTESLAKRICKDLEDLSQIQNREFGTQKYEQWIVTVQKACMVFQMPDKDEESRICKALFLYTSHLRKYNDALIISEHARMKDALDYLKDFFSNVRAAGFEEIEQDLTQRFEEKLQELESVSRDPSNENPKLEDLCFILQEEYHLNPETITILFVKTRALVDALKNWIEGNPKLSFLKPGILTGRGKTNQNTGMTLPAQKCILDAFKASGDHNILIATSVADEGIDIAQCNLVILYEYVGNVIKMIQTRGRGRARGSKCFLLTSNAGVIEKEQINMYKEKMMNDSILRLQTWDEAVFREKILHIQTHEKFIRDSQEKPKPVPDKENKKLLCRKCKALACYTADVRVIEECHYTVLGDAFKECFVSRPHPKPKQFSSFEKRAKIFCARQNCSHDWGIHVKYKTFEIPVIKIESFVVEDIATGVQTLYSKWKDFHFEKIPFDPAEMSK
The experiment in a line: EMSA; affinity comparable to WT; 1.5 mM MgCl2, room temperature. Conditions: tags: Flag; purified from transfected HEK293T; label: 32P at 5' end of bottom strand; blunt 19 bp duplex.

The target in data set [1] is T2, RIG-I wild-type (Homo sapiens, UniProt O95786 SEQ:1-925).
T2 chain: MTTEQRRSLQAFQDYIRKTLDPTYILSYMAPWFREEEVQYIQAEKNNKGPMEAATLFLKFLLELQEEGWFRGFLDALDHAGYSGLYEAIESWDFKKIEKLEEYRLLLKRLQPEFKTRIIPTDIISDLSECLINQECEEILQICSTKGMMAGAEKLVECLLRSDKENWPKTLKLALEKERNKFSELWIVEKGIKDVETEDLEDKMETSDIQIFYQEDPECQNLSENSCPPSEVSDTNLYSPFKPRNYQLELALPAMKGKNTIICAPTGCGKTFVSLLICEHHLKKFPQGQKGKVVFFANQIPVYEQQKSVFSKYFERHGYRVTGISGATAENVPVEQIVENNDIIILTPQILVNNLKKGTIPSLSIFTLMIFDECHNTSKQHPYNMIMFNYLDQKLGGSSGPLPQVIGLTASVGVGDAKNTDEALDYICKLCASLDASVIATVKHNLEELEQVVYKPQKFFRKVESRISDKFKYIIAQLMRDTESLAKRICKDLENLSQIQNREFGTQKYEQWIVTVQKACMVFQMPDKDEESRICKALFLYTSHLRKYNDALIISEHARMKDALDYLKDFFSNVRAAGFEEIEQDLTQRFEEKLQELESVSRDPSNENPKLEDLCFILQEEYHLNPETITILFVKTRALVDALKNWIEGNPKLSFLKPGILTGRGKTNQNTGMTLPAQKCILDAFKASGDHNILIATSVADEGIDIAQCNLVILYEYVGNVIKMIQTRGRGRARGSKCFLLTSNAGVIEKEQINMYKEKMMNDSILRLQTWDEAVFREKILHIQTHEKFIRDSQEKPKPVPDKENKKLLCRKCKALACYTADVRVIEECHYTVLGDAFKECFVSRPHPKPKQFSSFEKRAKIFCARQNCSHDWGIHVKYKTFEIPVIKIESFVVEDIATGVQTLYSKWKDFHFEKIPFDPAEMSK
The experiment in a line: EMSA; two RIG-I:RNA complexes with increasing RIG-I; 20 mM Tris-HCl pH 8.0, 1.5 mM MgCl2, 1.5 mM DTT, room temperature. Conditions: tags: Flag; purified from transfected HEK293T; label: 32P at 5' end of bottom strand; blunt 19 bp duplex. For orientation: Mobility shift assays separate free from complexed probe on a gel.

The target of the next data set is T3, RIG-I-K270A (Homo sapiens, UniProt O95786 SEQ:1-925, K270A).
T3 sequence: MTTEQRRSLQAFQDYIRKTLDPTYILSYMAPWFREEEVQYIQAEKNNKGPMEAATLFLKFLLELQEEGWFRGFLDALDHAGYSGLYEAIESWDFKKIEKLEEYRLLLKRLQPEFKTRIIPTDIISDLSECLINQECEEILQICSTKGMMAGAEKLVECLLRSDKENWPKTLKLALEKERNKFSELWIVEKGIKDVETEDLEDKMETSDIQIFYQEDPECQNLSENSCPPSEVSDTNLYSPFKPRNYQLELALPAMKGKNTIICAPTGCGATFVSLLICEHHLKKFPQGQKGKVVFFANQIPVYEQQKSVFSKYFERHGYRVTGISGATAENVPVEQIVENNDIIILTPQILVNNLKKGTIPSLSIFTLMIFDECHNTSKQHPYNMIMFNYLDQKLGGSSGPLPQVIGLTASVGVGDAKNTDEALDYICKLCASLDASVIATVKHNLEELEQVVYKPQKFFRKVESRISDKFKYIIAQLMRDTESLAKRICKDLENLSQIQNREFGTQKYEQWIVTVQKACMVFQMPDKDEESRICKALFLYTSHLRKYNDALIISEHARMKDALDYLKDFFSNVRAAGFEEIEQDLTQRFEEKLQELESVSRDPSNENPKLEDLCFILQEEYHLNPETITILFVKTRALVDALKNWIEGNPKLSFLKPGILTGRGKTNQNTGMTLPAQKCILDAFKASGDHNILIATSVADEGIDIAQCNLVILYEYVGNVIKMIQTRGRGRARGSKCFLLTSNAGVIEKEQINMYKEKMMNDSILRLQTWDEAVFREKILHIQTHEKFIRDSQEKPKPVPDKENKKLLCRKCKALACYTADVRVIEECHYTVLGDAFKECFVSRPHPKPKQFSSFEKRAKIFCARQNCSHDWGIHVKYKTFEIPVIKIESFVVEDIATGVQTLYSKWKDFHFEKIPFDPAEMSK
Nature of the data set: EMSA; affinity similar to WT; 1.5 mM MgCl2, room temperature. Conditions: tags: Flag; purified from transfected HEK293T; label: 32P at 5' end of bottom strand; blunt 19 bp duplex.

The target in data set [2] is T2, RIG-I wild-type. Nature of the data set: EMSA; forms the slowly migrating complex with dsRNA lacking 5'-triphosphate; 1.5 mM MgCl2, room temperature. The settings on record: tags: Flag; purified from transfected HEK293T; label: 32P at 5' end of bottom strand; blunt 19 bp duplex lacking 5'-triphosphate.

B1: 5'-ppp-dsRNA 19mer (dsRNA)
RNA 1: GCAUGCGACCUCUGUUUGA
RNA 2: UCAAACAGAGGUCGCAUGC
modifications: 5'-triphosphate on top strand
For the molecule B1, the binding result with RIG-I-N495D, in the data set with RIG-I wild-type [1] and with RIG-I-K270A was “binds” each time.

B2: control dsRNA 19mer (dsRNA)
RNA 1: GCAUGCGACCUCUGUUUGA
RNA 2: UCAAACAGAGGUCGCAUGC
Take B2: the binding result in the data set with RIG-I wild-type [2] is recorded as “binds”.
